Laboratory results from the supplement of paper PMC10724198.
± gives the standard deviation of the averaged measurements.

Test system: Saccharomyces cerevisiae
Test: protein stability index of tFT-peptide fusion (C-terminal peptide) (PSI (0-1 scale)); higher = more stable (slower turnover)
Conditions: genetic background: wild type; temperature: 30 C
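Also: PSI is a weighted mean of sequencing reads over stability bins, variants kept only with over 10 reads, mCherry proximal and sfGFP distal, peptide attached via GGGS linker.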

| Sequence | protein stability index |
| --- | --- |
| DSDIIDYKMEII | 0.722 ± 0.12 |
| RVGRGGGRETRG | 0.699 ± 0.031 |
| FGSDQFVCRLWS | 0.729 ± 0.048 |
| PPPGPPSAPPPH | 0.706 ± 0.047 |
| GGGGGISGGRWG | 0.667 ± 0.075 |
| GVCGVSKGRRHR | 0.701 ± 0.018 |
| LVSFLFAPLPLS | 0.704 ± 0.038 |
| SSSLCSSSLGGS | 0.605 ± 0.069 |
| PPRQLPFLAPSP | 0.709 ± 0.046 |
| GKEKRKEGERRK | 0.697 ± 0.12 |
| TSRCQIGIALGG | 0.695 ± 0.12 |
| WGGGGLVVFGWK | 0.698 ± 0.011 |
| MVMEGLRTLSCQ | 0.6589 ± 0.0061 |
| EEVVAQYCITLS | 0.5864 ± 0.0021 |
| PIPSPYYPPTFC | 0.73 ± 0.11 |
| VSPGLFRSPPHY | 0.664 ± 0.011 |
| LSGTGTIIKARA | 0.67 ± 0.14 |
| DGRGPVSPTSLR | 0.662 ± 0.036 |
| APLFLPPPSLFF | 0.6934 ± 0.0052 |
| PRPGPPPPPPSP | 0.713 ± 0.035 |
| VLGGRWDGVGGV | 0.661 ± 0.064 |

| Sequence | protein stability index |
| --- | --- |
| RARNRPKTEYHI | 0.6826 ± 0.0025 |
| LTLGAIRLLLRC | 0.496 ± 0.037 |
| RRGTRGGGGRER | 0.638 ± 0.019 |
| PSSRPPPPPPPP | 0.698 ± 0.037 |
| LAGLAVASVRRE | 0.683 ± 0.013 |
| PPGGSRTEGRRT | 0.688 ± 0.049 |
| VFCLGTRSWGLF | 0.6997 ± 0.0042 |
| GGRWGGVSLGGR | 0.693 ± 0.11 |
| LGGVLVGDWVGI | 0.7125 ± 0.0042 |
| VCLCFWSVGSWG | 0.543 ± 0.011 |
| PLCAFLFLSSPP | 0.757 ± 0.031 |
| PELCLSSPSSLS | 0.686 ± 0.018 |
| GRLWGGIKGGMG | 0.663 ± 0.0096 |
| SLPAFLPAPPLF | 0.6962 ± 0.002 |
| ASLLGLLIHLGR | 0.6951 ± 0.0059 |
| GPVTPADASPHC | 0.686 ± 0.034 |
| PPPPLAPLPPAS | 0.608 ± 0.12 |
| EQVTCGGIRVGQ | 0.656 ± 0.086 |
| GGLREPIYQLWV | 0.648 ± 0.076 |
| LLPPFPPSSPAF | 0.708 ± 0.036 |
| SVCVLGPLDGSC | 0.701 ± 0.022 |

| Sequence | protein stability index |
| --- | --- |
| LTGTVQPKLILP | 0.722 ± 0.051 |
| FLGECSLLSGFL | 0.694 ± 0.033 |
| VLLLSRPLFPFS | 0.669 ± 0.031 |
| KNKGKHKGGKYR | 0.721 ± 0.059 |
| PRALLPPSPPSP | 0.635 ± 0.09 |
| LVRCDSSSPLPP | 0.6863 ± 0.0042 |
| PPLGPARNYPSL | 0.673 ± 0.018 |
| TLSLILPQLPPL | 0.643 ± 0.071 |
| NCSSNNRQSENI | 0.644 ± 0.017 |
| GGGCGGACRPVG | 0.692 ± 0.14 |
| TVTSTLKKHKRG | 0.669 ± 0.034 |
| TLRRYSFTKKNL | 0.737 ± 0.069 |
| IKGSLILRGRGE | 0.657 ± 0.025 |
| SGLWAGVDGRSS | 0.6855 ± 0.0021 |
| SRKEKNEKRSWG | 0.674 ± 0.041 |
| PLSRPFSPSLPL | 0.66 ± 0.028 |
| CFVIFFSSPGVC | 0.583 ± 0.03 |
| VEYGRLPRGEEG | 0.645 ± 0.13 |
| AGGSVFSVLVDE | 0.665 ± 0.0081 |
| GELADVVWLGGE | 0.652 ± 0.057 |
| PPRPPAALPRLL | 0.714 ± 0.07 |

| Sequence | protein stability index |
| --- | --- |
| CGIAGVKSLGLC | 0.717 ± 0.039 |
| DVLCALYFGRSK | 0.707 ± 0.045 |
| FKPKAGCSNFAK | 0.696 ± 0.025 |
| VCCMFTAFGVCG | 0.604 ± 0.022 |
| FGAIREVFYIRL | 0.662 ± 0.018 |
| TRGDCFAVRKAR | 0.702 ± 0.027 |
| PPATPTNPPVSP | 0.687 ± 0.027 |
| KCPRPDATLYQS | 0.721 ± 0.042 |
| VGSSRWRHVGRR | 0.6742 ± 0.0063 |
| GGGARQAGGDNI | 0.666 ± 0.045 |
| WWKLSGTGWGTL | 0.73 ± 0.022 |
| LGLLVLARFSPL | 0.7076 ± 0.0053 |
| SLVSYSPPLPPP | 0.681 ± 0.034 |
| PPPPRPPPLPTR | 0.703 ± 0.021 |
| PRVLPFPSFLFF | 0.657 ± 0.022 |
| GVRGGWVVNRGV | 0.732 ± 0.026 |
| SKKRHSKNRKSV | 0.71 ± 0.032 |
| RLIPPQTAHEFP | 0.685 ± 0.028 |
